Tests used:
RXRA ΔAB;RARA ΔAB [1] = biological target: T1, RXRA ΔAB;RARA ΔAB (Mus musculus;Mus musculus, UniProt P28700;P11416 135-467;84-462, |); experiment: FRET titration
T1 sequence 1: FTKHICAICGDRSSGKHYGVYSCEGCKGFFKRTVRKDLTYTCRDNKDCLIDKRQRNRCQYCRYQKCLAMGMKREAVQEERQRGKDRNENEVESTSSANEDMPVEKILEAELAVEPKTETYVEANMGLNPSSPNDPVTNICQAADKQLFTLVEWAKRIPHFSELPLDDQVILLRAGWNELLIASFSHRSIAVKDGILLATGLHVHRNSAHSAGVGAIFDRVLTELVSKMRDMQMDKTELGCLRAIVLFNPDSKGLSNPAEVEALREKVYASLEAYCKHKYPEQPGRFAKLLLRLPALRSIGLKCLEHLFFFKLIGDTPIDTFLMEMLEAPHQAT
T1 sequence 2: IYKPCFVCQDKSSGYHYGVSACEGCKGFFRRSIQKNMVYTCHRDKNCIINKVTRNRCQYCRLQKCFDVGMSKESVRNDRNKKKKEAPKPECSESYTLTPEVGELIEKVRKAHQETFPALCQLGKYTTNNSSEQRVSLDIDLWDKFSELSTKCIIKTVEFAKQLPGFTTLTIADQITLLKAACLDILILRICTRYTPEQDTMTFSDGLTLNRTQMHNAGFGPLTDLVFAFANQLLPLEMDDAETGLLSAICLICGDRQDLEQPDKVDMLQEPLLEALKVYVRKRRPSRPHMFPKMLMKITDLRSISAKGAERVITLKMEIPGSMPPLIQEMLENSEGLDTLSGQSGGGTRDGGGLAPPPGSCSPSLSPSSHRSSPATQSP

RXRA DBD = RXRA DBD (Homo sapiens, UniProt P19793 130-212); experiment: X-ray crystallography
RXRA ΔAB;RARA ΔABF = biological target: T2, RXRA ΔAB;RARA ΔABF (Mus musculus;Mus musculus, UniProt P28700;P11416 135-467;84-421, |); experiment: SEC-SAXS/RALLS
T2 sequence 1: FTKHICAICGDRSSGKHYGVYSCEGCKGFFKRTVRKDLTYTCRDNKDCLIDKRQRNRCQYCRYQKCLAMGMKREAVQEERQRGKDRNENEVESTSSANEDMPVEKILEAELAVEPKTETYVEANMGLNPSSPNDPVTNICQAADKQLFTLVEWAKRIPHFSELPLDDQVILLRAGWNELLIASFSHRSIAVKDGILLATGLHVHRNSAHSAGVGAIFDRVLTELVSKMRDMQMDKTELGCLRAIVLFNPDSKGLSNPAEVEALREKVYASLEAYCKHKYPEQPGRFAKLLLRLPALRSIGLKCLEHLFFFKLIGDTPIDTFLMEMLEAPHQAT
T2 sequence 2: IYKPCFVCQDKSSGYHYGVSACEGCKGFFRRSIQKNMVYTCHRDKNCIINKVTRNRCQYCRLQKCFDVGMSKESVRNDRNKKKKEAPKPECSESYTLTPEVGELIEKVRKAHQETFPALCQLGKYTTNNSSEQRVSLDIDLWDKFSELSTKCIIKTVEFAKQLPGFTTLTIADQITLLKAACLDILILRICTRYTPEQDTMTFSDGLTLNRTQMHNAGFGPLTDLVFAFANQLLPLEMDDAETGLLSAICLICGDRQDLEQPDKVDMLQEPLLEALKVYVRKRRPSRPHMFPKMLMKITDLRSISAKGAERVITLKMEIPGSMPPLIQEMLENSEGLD

RXRA ΔAB;RARA ΔAB [2] = biological target: T1, RXRA ΔAB;RARA ΔAB; experiment: HDX-MS
HsRARA DBD (82–167) = biological target: T3, HsRARA DBD (82–167) (human, UniProt P10276 82-167); experiment: crystal structure
T3 sequence (looked up): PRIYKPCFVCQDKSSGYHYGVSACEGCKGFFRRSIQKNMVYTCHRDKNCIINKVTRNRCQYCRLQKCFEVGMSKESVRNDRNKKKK

RXRA DBD;RARA DBD = RXRA DBD;RARA DBD (Homo sapiens;Homo sapiens, UniProt P19793;P10276 130-212;82-167, |); experiment: X-ray crystallography

B1: Rarb2 DR5 TAMRA (dsDNA)
DNA 1: AGGGTTCACCGAAAGTTCACT
DNA 2: AGTGAACTTTCGGTGAACCCT
Kd (RXRA ΔAB;RARA ΔAB [1]): 800 nM

B2: Hoxb13 DR0 (crystal) (dsDNA)
DNA 1: GAAGGTCAAGGCCAAG
DNA 2: CTTGGCCTTGACCTTC
binding result (RXRA DBD): binds

B3: Socs3 DR0 (dsDNA)
DNA 1: AGGGGTCAAGGTCAAA
DNA 2: TTTGACCTTGACCCCT
Kd (RXRA ΔAB;RARA ΔAB [1]): 2700 nM

B4: Hoxb13 DR0 unlabelled (SAXS, HDX) (dsDNA)
DNA 1: GAAGGTCAAGGCCAAG
DNA 2: CTTGGCCTTGACCTTC
binding result (RXRA ΔAB;RARA ΔABF): binds | binding result (RXRA ΔAB;RARA ΔAB [2]): binds

B5: HsRXRA DBD (130–212) (domain or fragment, human, UniProt P19793 130-212, looked up)
chain: FTKHICAICGDRSSGKHYGVYSCEGCKGFFKRTVRKDLTYTCRDNKDCLIDKRQRNRCQYCRYQKCLAMGMKREAVQEERQRG
binding result (HsRARA DBD (82–167)): binds

B6: Rarb2 DR5 (crystal) (dsDNA)
DNA 1: AGGGTTCACCGAAAGTTCACT
DNA 2: AGTGAACTTTCGGTGAACCCT
binding result (RXRA DBD;RARA DBD): binds

B7: F11r DR5 (dsDNA)
DNA 1: AGGGGTCAAGCCAGGTTCACT
DNA 2: AGTGAACCTGGCTTGACCCCT
binding result (RXRA ΔAB;RARA ΔABF): binds

B8: Ramp2 DR1 (dsDNA)
DNA 1: TGAGTTCAAGGGTCAAT
DNA 2: ATTGACCCTTGAACTCA
Kd (RXRA ΔAB;RARA ΔAB [1]): 500 nM

From publication PMC7515732 (Nucleic Acids Research, 2020)
